# Test results from patent EP4725963A1.
# Biological target: human NPR1 full-length protein overexpressed on CHO-K1 cells (human) (UniProt P16066)
# Experiment: cell-based or functional assay
# Chain of human NPR1 full-length protein overexpressed on CHO-K1 cells (human) (P16066 33-1061): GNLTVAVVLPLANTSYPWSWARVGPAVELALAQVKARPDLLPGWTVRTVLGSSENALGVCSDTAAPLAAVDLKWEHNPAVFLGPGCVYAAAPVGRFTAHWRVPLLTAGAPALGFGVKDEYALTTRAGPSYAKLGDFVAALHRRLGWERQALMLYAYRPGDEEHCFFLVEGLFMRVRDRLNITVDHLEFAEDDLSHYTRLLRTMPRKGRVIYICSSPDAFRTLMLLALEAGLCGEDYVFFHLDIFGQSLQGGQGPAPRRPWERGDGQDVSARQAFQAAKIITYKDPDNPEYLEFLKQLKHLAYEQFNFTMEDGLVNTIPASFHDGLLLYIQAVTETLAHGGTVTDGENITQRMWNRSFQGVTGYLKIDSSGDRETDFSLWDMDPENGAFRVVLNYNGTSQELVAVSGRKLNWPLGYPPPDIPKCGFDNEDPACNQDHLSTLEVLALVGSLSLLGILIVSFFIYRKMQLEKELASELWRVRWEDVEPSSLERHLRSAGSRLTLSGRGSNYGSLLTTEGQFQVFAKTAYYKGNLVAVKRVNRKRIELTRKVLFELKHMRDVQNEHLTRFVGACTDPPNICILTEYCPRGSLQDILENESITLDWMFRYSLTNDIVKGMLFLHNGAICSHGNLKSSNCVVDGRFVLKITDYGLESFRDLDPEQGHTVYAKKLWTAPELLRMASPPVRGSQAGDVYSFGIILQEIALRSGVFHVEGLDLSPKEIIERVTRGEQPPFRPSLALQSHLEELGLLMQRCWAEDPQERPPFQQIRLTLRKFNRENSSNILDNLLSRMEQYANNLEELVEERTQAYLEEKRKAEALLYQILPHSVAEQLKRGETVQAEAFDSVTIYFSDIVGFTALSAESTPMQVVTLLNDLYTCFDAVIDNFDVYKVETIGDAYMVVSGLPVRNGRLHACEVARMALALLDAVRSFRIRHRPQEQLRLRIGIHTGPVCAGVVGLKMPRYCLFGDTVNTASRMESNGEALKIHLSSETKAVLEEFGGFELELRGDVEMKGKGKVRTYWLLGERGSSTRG
substance,measurement,value
REGN-5381 (antibody),"Ratio (without ANP) of NPR1 antigens remaining on the cell surface after endocytosis to the initial number, 10 min, 20 µg/mL",0.56
same,"Ratio (without ANP) of NPR1 antigens remaining on the cell surface after endocytosis to the initial number, 1 h, 20 µg/mL",0.46
same,"Ratio (without ANP) of NPR1 antigens remaining on the cell surface after endocytosis to the initial number, 7 hrs, 20 µg/mL",0.3
same,"Ratio (without ANP) of NPR1 antigens remaining on the cell surface after endocytosis to the initial number, 24 hrs, 20 µg/mL",0.39
same,Sum of signal changes (cGMP production in cells before and after endocytosis treatment),1.08
